The source of these data is US20240287208A1 (CONCEPT TO MEDICINE BIOTECH, published 2024).

One test deals with T1, human CD40-His protein (human, UniProt P25942 21-193).
T1 construct: His-tagged recombinant protein; also called human CD40-his tag; recombinant CD40 protein
Nature of the test: ELISA, plate-coated human CD40-His. Here is the method:
(§1) To evaluate the binding activity of clones 42p155, 2p834, 2p931, 42p655, 2p1294, 2p957, 42p495, 3p78, 2p415, 2p442, 2p551, 2p80 and 2p1130, the chimeric monospecific antibody (mAb) from these clones were subjected to ELISA test, along with selicrelumab, the clinical benchmark anti-CD40 agonist antibodies.
(§2) Briefly, microtiter plates were coated with human CD40-His protein at 1.0 μg/ml in PBS, 100 μl/well at 4° C. overnight, then blocked with 150 µl/well of 1% BSA. Ten-fold dilutions of 42p155, 2p834, 2p931, 42p655, 2p1294, 2p957, 42p495, 3p78, 2p415, 2p442, 2p551, 2p80 and 2p1130 antibodies starting from 100 nM were added to each well and incubated for 1 hour at RT. The plates were washed with PBS/Tween and then incubated with Anti-Human IgG (H&L) (GOAT) Antibody Peroxidase Conjugated for 30 mins at RT. After washing, the plates were developed with TMB substrate and analyzed by spectrophotometer at OD 450 nm.

For test [1], the target named is T2, human CD40 on the cell surface (human, UniProt P25942 21-277). Nature of the test: cell-based or functional assay.
T2 sequence (P25942 21-277): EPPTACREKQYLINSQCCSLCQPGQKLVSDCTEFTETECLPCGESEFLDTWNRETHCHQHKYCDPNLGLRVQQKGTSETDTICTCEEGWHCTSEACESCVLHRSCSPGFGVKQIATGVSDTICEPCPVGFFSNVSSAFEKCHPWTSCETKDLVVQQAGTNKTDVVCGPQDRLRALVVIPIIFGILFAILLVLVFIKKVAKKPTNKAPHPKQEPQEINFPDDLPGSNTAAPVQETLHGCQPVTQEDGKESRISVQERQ
The target in test [2] is T3, cynomolgus CD40-His protein (cynomolgus, UniProt G7PG38 21-193).
T3 construct: His-tagged recombinant protein; also called cyno CD40 antigen
The test can be described thus: ELISA, plate-coated cynomolgus CD40-His. Here is the method:
as §1
as §2, with “The binding affinity of these clones to cynomolgus CD40 was also tested. Microtiter” for “Briefly, microtiter”, “cynomolgus” for “human”, “µl/well” for “μl/well”, “nm. As shown in FIG. 1B and Table 2, all these clones bound to cynomolgus CD40 at high activity, showing good cross-reactivity between human and cynomolgus CD40 proteins.” for “nm.”
Background: An ELISA detects its analyte on a solid surface through an enzyme-linked reagent.

Another test concerns the target T4, human OX40 protein (human, UniProt P43489 29-216, limits assumed).
T4 sequence (looked up): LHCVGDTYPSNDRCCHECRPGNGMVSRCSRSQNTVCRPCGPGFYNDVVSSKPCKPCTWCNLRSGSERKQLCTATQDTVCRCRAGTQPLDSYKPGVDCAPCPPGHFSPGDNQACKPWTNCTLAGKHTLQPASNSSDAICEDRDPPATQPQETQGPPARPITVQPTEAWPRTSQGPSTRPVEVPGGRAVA
Nature of the test: ELISA, plate-coated protein. Here is the method:
(§3) To evaluate the cross reactivity of chimeric anti-CD40 antibodies to other family members of TNF receptors, the ELISA binding towards human 4-1BB and human OX40 were performed.
as §2, with “4-1BB protein or human OX40” for “CD40-His”, “1” for “1.0”, “μl/well” for “µl/well”

In the next test the target is T5, human 4-1BB protein (human, UniProt Q07011 24-186).
T5 construct: also called 4-IBB
The test can be described thus: ELISA, plate-coated protein. Here is the method: as §3
as §2, with “4-1BB protein or human OX40” for “CD40-His”, “1” for “1.0”, “μl/well” for “µl/well”

Test [3] deals with T2, human CD40 on the cell surface. Nature of the test: FACS, Jurkat cells overexpressing human CD40, PE anti-human IgG, MFI. Here is the method:
To evaluate the binding affinity of 5T4-CD40 bispecific antibodies to cell surface CD40, bispecific antibodies with formats of b 1 (42p155z2), b12 (42p155z2), b13 (42p155z2), b16 (42p155z2), b17 (42p155z2) and b18 (2p1130) were tested in Jurkat cell lines that overexpressed CD40 by FACS. A total number of 1×10⁵ Jurkat-CD40 cells in each well were incubated with 5-fold serially diluted antibodies starting from 100 nM for 30 minutes at 4° C. in FACS buffer. After wash by FACS buffer, PE conjugated-anti-human IgG antibody was added to each well and incubated at 4° C. for 30 minutes. After wash, MFI of PE was evaluated by MACSQuant Analyzer 16.

Where only a bound is given, the exact number is not on record here.

T1 sequence (P25942 21-193 limits assumed): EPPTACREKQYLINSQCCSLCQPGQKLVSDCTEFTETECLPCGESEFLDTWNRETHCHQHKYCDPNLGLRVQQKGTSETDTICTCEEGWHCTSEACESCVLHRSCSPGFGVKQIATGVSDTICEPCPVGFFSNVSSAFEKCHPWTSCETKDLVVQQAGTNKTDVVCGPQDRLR

B1: 2p551 chimeric monospecific antibody (antibody, V domains shown)
VH: QLHFVESGGGLVQPGGSLRLSCAASGFTLDYYAIGWFRQAPGKEREGVSCISGGGSTRYADSVKGRFTISRDNAKNTVYLQMNSLTPEDTAVYYCAAARLLSTNCVPRDSGSWGQGTQVTVSS
notes: Chimeric monospecific antibody
Usually EC50 stands for the concentration that produces a half-maximal response. B1: the EC50 was 1.4 nM in the test with human CD40-His protein and 0.13 nM in test [2]. In test [1], the “CD40 NF-κB luciferase reporter (Jurkat), RLU” value (“CD40 NF-κB luciferase reporter” for short) was over 10 nM. Besides, the binding result in the test with human OX40 protein and in the test with human 4-1BB protein was “no binding (tested: 100 nM (highest concentration))” each time.

B2: 2p415 chimeric monospecific antibody (antibody, V domains shown)
VH: QLHFVESGGGLVQPGGSLRLSCAASGFTLDHYAMGWFRQAPGKEREGVSCISGGGSTRYADSAKGRFTISRDNAKNTVYLQMNSLTPEDTAVYYCAAARLLSRNCVPRDSGSWGQGTQVTVSS
notes: as for B1
On to B2, for which the EC50 with human CD40-His protein is 1.27 nM; in test [2] it was 0.23 nM. Also, the “CD40 NF-κB luciferase reporter” value in test [1] is over 10 nM. For the same molecule, the binding result in the test with human OX40 protein and in the test with human 4-1BB protein was “no binding (tested: 100 nM (highest concentration))” in each case.

B3: 2p957 chimeric monospecific antibody (antibody, V domains shown)
VH: PVQLVESGGGLVQPGGSLRLSCAASGFSFRNYIMSWVRQAPGKGLEWLSSITNSGGITSYTESVKGRFTISRDNAKNTLYLQMNSLKPEDTAVYYCAQGGSDNYYRGSWGQGTQVTVSS
notes: as for B1
For B3, the half-maximal effective concentration (EC50) in the test with human CD40-His protein was 1.8 nM; in test [2], 1.08 nM. For the same molecule, in test [1], the “CD40 NF-κB luciferase reporter” value was over 10 nM. Also, the binding result with human OX40 protein and with human 4-1BB protein was “no binding (tested: 100 nM (highest concentration))” in each case.

B4: 42p155 chimeric monospecific antibody (antibody, V domains shown)
VH: PSQLVESGGGLVQPGGSLRLSCAASGFAFRSYTMSWVRQAPGKGLEWVSTITHNGAITTYAESAQGRFTISRDNAKNTLYLQMNSLKPEDTAVYYCAQGGGSNYYRESWGQGTQVTVSS
notes: Chimeric monospecific antibody (cAb) made from the VHH; also called 42p155 cAb
Consider B4, for which, in test [1], the “CD40 NF-κB luciferase reporter” value is over 10 nM. For the same molecule, the binding result with human OX40 protein and with human 4-1BB protein was “no binding (tested: 100 nM (highest concentration))” throughout.

B5: 2p1294 chimeric monospecific antibody (antibody, V domains shown)
VH: QVQLVESGGGLVQPGGSLRLSCAASGFSFRRYTMSWVRQAPGKGLEWVSAISDNGAITTYTESAQGRFTISRDNAKNTLYLQMNSLKPEDTAVYYCAQGGGSNYYRESWGQGTQVTVSS
notes: as for B1
B5: the EC50 with human CD40-His protein was 1.16 nM; in test [2], 0.32 nM. Further, the “CD40 NF-κB luciferase reporter” value in test [1] was over 10 nM. Besides, the binding result with human OX40 protein and in the test with human 4-1BB protein was “no binding (tested: 100 nM (highest concentration))” in each case.

B6: 42p655 chimeric monospecific antibody (antibody, V domains shown)
VH: AVQLVESGGGLVQPGGSLRLSCAASGFAFRRYTMSWVRQAPGKGLEWVSSITDNGSITTYAESAQGRFTISRDNAKNTLYLQMNSLKPEDTAVYHCAQGGGSNYYRESWGQGTQVTVSS
notes: as for B1
For B6, the EC50 with human CD40-His protein was 1.24 nM; in test [2] it was 0.35 nM. In test [1], the “CD40 NF-κB luciferase reporter” value was over 10 nM. The binding result with human OX40 protein and with human 4-1BB protein was “no binding (tested: 100 nM (highest concentration))” each time.

B7: 2p1130 chimeric monospecific antibody (antibody, V domains shown)
VH: EVQVVESGGGLVQPGGSLRLTCAASGFSVDDYGIGWFRQAPGREREGVACITPNGLMMNFANTVGSVAGRFSASRDSGENTVSLQMSSLKPEDTAIYFCAHSRDDSCRGSLSDYDDWGQGTQVTVSS
notes: as for B1
As for B7, the EC50 came to 2.56 nM with human CD40-His protein and 0.73 nM in test [2]. Moreover, the “CD40 NF-κB luciferase reporter” value in test [1] is over 10 nM. In addition, the binding result with human OX40 protein and in the test with human 4-1BB protein was “no binding (tested: 100 nM (highest concentration))” in each case.

B8: b13 (42p155z2) anti-5T4/CD40 bispecific antibody (bispecific antibody, human IgG1, kappa, N297A)
heavy: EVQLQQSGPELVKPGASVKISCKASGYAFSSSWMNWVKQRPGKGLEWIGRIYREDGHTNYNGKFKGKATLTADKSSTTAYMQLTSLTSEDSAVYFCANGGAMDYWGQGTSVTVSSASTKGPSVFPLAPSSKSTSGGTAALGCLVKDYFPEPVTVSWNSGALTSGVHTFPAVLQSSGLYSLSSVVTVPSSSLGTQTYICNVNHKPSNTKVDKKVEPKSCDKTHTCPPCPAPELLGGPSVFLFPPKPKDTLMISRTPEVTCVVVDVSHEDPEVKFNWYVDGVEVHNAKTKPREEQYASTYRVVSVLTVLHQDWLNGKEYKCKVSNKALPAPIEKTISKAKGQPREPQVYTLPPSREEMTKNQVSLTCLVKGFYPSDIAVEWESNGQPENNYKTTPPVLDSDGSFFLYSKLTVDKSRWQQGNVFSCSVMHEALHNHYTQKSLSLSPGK
light: DIQMTQSTSSLSASLGDRVTISCRASQDISNYLNWYQQKPDGTVKLLIYYTSRLHSGVPSRFSGSGSGTDYSLTISNLEQEDIATYFCQQDNTLPWTFGGGTKLEIKRTVAAPSVFIFPPSDEQLKSGTASVVCLLNNFYPREAKVQWKVDNALQSGNSQESVTEQDSKDSTYSLSSTLTLSKADYEKHKVYACEVTHQGLSSPVTKSFNRGECGGGGSGGGGSGGGGSGGGGSEVQLVESGGGLVQPGGSLRLSCAASGFAFRSYTMSWVRQAPGKGLEWVSTITHNGAITTYAESAQGRFTISRDNSKNTLYLQMNSLRAEDTAVYYCAQGGGSNYYRESWGQGTQVTVSS
notes: also called 2+2 b13 format
With B8, the binding result in test [3] is given as “binds”.

B9: b18 (2p1130) anti-5T4/CD40 bispecific antibody (bispecific antibody, human IgG1, kappa, N297A)
heavy 1: EVQLQQSGPELVKPGASVKISCKASGYAFSSSWMNWVKQRPGKGLEWIGRIYREDGHTNYNGKFKGKATLTADKSSTTAYMQLTSLTSEDSAVYFCANGGAMDYWGQGTSVTVSSASTKGPSVFPLAPSSKSTSGGTAALGCLVKDYFPEPVTVSWNSGALTSGVHTFPAVLQSSGLYSLSSVVTVPSSSLGTQTYICNVNHKPSNTKVDKKVEPKSCDKTHTCPPCPAPELLGGPSVFLFPPKPKDTLMISRTPEVTCVVVDVSHEDPEVKFNWYVDGVEVHNAKTKPREEQYASTYRVVSVLTVLHQDWLNGKEYKCKVSNKALPAPIEKTISKAKGQPREPQVCTLPPSREEMTKNQVSLSCAVKGFYPSDIAVEWESNGQPENNYKTTPPVLDSDGSFFLVSKLTVDKSRWQQGNVFSCSVMHEALHNHYTQKSLSLSPGK
light: DIQMTQSTSSLSASLGDRVTISCRASQDISNYLNWYQQKPDGTVKLLIYYTSRLHSGVPSRFSGSGSGTDYSLTISNLEQEDIATYFCQQDNTLPWTFGGGTKLEIKRTVAAPSVFIFPPSDEQLKSGTASVVCLLNNFYPREAKVQWKVDNALQSGNSQESVTEQDSKDSTYSLSSTLTLSKADYEKHKVYACEVTHQGLSSPVTKSFNRGEC
heavy 2: not shown
notes: also called 1+3 b18 format
In general, EC50 (read off the curve) refers to the concentration needed to bring the measured effect to its halfway point. Read a low EC50 (read off the curve) as an effect from little substance. Take B9: the “EC50 (read off the curve)” value in test [3] was about 2 nM.

B10: b11 (42p155z2) anti-5T4/CD40 bispecific antibody (bispecific antibody, human IgG1, kappa, N297A)
heavy: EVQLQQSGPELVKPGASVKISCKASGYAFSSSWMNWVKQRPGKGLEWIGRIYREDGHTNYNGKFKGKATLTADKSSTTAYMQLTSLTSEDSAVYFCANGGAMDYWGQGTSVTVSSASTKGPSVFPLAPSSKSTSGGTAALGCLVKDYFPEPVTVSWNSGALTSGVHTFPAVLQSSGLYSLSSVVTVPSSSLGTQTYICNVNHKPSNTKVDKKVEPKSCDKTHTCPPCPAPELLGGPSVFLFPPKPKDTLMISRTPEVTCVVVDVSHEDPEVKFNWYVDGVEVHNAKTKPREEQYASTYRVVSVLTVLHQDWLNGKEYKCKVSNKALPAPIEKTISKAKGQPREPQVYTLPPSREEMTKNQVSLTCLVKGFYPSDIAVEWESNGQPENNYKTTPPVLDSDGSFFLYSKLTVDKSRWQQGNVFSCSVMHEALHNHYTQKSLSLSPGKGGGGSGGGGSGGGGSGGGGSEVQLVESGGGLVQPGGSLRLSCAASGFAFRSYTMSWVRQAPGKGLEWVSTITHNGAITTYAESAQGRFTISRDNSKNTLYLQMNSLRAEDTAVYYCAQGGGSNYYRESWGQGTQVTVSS
light: DIQMTQSTSSLSASLGDRVTISCRASQDISNYLNWYQQKPDGTVKLLIYYTSRLHSGVPSRFSGSGSGTDYSLTISNLEQEDIATYFCQQDNTLPWTFGGGTKLEIKRTVAAPSVFIFPPSDEQLKSGTASVVCLLNNFYPREAKVQWKVDNALQSGNSQESVTEQDSKDSTYSLSSTLTLSKADYEKHKVYACEVTHQGLSSPVTKSFNRGEC
notes: also called b 1 (42p155z2); 2+2 b11 format
For the molecule B10, the binding result in test [3] was “binds”.

B11: 42p495 chimeric monospecific antibody (antibody, V domains shown)
VH: PVQLVESGGNLVQPGGSLRLSCVAPGFTSRNSAMSWVRQAPGKGLEWVSTIYSGKSNTDYADSVKGRFTISTDNAKNTLYLHMNKLKSEDTAVYYCAKGAASDWYVPRDYWGQGTQVTVSS
notes: as for B1
Turning to B11, the 50% effective concentration (EC50) with human CD40-His protein was 1.52 nM; in test [2], 1 nM. Also, the “CD40 NF-κB luciferase reporter” value in test [1] is over 10 nM. Moreover, the binding result with human OX40 protein and with human 4-1BB protein was “no binding (tested: 100 nM (highest concentration))” in each case.
